Substitutions are numbered along the chain they refer to. Read-outs that look alike come from different tables or passages of the source.
T1: mouse CD47, on CHOK1/mCD47 cells (mouse, UniProt Q61735 19-303)
T1 construct: whole, on cells; also called murine CD47
T1 sequence (looked up): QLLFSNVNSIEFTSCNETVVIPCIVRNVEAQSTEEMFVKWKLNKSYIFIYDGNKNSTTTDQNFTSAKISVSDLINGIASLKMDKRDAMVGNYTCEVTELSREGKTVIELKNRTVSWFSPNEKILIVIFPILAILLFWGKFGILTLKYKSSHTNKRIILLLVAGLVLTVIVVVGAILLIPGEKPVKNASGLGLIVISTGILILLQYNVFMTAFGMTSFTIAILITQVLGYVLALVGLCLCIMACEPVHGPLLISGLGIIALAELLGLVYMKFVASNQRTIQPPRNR

B1: c95E2D10 (antibody, V domains shown)
VH: QIQLQQSGPELVKPGASMKISCKASGYPFTDYYIHWVKQKPGQGLEWIGWIYPGSGNNKYNEKFKGKATLTVDTSPSTVYMQLSSLTSEDTAVYFCARRAGNYFDYWGQGTTLTVSS
VL: NIVMTQSPKSMSRSVGERVTLSCRASENVRTYVFWYQQKPGLSPKLLIYGASNRYIGVPDRFTGSGSATDFTLTISSVQAEDLADYHCGQSYSYPLTFGAGTKLELK
B2: 29A03 WT (antibody, V domains shown)
VH: EVQLQQSGAELVKPGASVKMSCKASGYTFTNYWITWVKQRPGQGLEWIGDIYPVSGGTDYNEKFKTRATLTVDTSSSTAYMHLSSLTSEDSAVYYCARKGRGGVDYWGQGTTLTVSS
VL: DILMTQTPLSLPVSLGDQASISCRSSQSIVHSNGNTYLEWYLQKPGQSPKLLIYKVSNRFSGVPDRFSGSGSGTDFTLKISRVEAEDLGVYFCSQSTHVPYTFGGGTKLEIK
notes: WT = NG site of CDR-L1 not mutated
B3: 29A03 QG (antibody, V domains shown)
VH: B2 VH
VL: B2 VL with N33Q
B4: c29A03NA (antibody, V domains shown)
VH: B2 VH
VL: B2 VL with G34A
notes: Phage-derived clone 29A03 with the NG site of CDRL1 mutated to NA

Experiments:
[1] = molecular target: T2, His-tagged CD47 recombinant protein, CD47-His (human, UniProt Q08722 19-141, limits assumed); test: BLI (Octet Red 96), antibody on AHC sensor, CD47-His 100 nM
T2 construct: it is not restated for CD47-His; also called human CD47-His protein; antigen CD47-His; not shown: His tag

[2] = molecular target: T3, biotin-labeled CD47 extracellular domain protein (CD47-ECD) (UniProt Q08722 19-139, limits assumed, biotin-labeled (sites not given)); test: blocking ELISA: SIRPα-hFc coated, biotin-labeled CD47-ECD added with the antibody, OD450; blocked ligand SIRPα-hFc
T3 construct: extracellular domain; also called CD47 protein

[3] = molecular target: T1, mouse CD47, on CHOK1/mCD47 cells; test: flow cytometry (FACS) on CHOK1-mCD47 cells, mean fluorescence intensity
[4] = molecular target: T4, human CD47, full length, on transfected cells (human, UniProt Q08722 19-323); test: flow cytometry (FACS) on CHOK1-hCD47 cells, mean fluorescence intensity
T4 construct: whole, on cells; also called CHOK1-hCD47
Experimental: (§1) The CHOK1-hCD47 stable cell lines and CHOK1-cCD47 stable cell lines were expanded to 90% confluence in a T-75 cell culture flask, the medium was exhausted, washed twice with HBSS buffer (Hanks balanced salt solution) (purchased from Invitrogen), and then treated and collected with enzyme-free cell dissociation solution (Versene solution: purchased from Life technology). The cells were washed twice with HBSS buffer. After counted, the cells were diluted with HBSS to 2×10⁶ cells per ml, added with 1% goat serum blocking solution, wherein the percentage was the mass percantage, incubated on ice for 30 minutes, and then washed twice with HBSS by centrifugation. […] The plate was washed 3 times with FACS buffer by centrifugation, added with 100 μl fixative solution [4% (v/v) Paraformaldehyde] per well to suspend the cells. 10 minutes later, it was washed twice with FACS buffer by centrifugation. The cells were suspended with 100 microliters of FACS buffer, FACS (FACS Calibur, purchased from BD) was used for detection and the results were analyzed.

[5] = molecular target: T5, cynomolgus CD47, on CHOK1-cCD47 stable cell line (cynomolgus); test: flow cytometry (FACS) on CHOK1-cynoCD47 cells, mean fluorescence intensity
T5 construct: whole, on cells; check before use; also called CHOK1/cynoCD47; monkey-derived CD47
Experimental: as §1

[6] = molecular target: T3, biotin-labeled CD47 extracellular …; test: blocking ELISA: SIRPα-hFc coated, biotin-labeled CD47-ECD added with the antibody, OD450; blocked ligand SIRPα-hFc; remark: listed apart in the source

Binder	Kd [1] [nM]	koff [1] [s⁻¹]	kon [1] [M⁻¹ s⁻¹]	IC50 (read off the curve) [2] [nM]	EC50 (read off the curve) [3] [nM]	EC50 (read off the curve) [4] [nM]	EC50 (read off the curve) [5] [nM]	IC50 (read off the curve) [6] [nM]
B1	10.2	0.00358	350000	~1	–	–	–	–
B2	–	–	–	–	~10	~5	~3	–
B3	–	–	–	–	~10	~5	~3	~3
B4	4.69	0.00207	442000	–	~10	~5	~3	~1

Reference: patent publication US20220017615A1 (SHANGHAI PHARMAEXPLORER, published 2022)
